B1: Serine/threonine-protein phosphatase 2A 65 kDa regulatory subunit A beta isoform (Homo sapiens), P30154 (parent)
chain: MAGASELGTGPGAAGGDGDDSLYPIAVLIDELRNEDVQLRLNSIKKLSTIALALGVERTRSELLPFLTDTIYDEDEVLLALAEQLGNFTGLVGGPDFAHCLLPPLENLATVEETVVRDKAVESLRQISQEHTPVALEAYFVPLVKRLASGDWFTSRTSACGLFSVCYPRASNAVKAEIRQQFRSLCSDDTPMVRRAAASKLGEFAKVLELDSVKSEIVPLFTSLASDEQDSVRLLAVEACVSIAQLLSQDDLETLVMPTLRQAAEDKSWRVRYMVADRFSELQKAMGPKITLNDLIPAFQNLLKDCEAEVRAAAAHKVKELGENLPIEDRETIIMNQILPYIKELVSDTNQHVKSALASVIMGLSTILGKENTIEHLLPLFLAQLKDECPDVRLNIISNLDCVNEVIGIRQLSQSLLPAIVELAEDAKWRVRLAIIEYMPLLAGQLGVEFFDEKLNSLCMAWLVDHVYAIREAATNNLMKLVQKFGTEWAQNTIVPKVLVMANDPNYLHRMTTLFCINALSEACGQEITTKQMLPIVLKMAGDQVANVRFNVAKSLQKIGPILDTNALQGEVKPVLQKLGQDEDMDVKYFAQEAISVLALA
partner: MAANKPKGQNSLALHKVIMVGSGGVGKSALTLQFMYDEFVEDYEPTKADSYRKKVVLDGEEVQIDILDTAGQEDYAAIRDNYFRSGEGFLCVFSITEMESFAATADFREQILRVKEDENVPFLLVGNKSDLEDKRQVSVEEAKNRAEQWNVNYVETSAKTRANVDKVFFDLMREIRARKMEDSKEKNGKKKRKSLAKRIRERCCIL
B2: Serine/threonine-protein phosphatase 2A 65 kDa regulatory subunit A beta isoform (Homo sapiens), P30154 (parent)
chain: B1 chain
partner: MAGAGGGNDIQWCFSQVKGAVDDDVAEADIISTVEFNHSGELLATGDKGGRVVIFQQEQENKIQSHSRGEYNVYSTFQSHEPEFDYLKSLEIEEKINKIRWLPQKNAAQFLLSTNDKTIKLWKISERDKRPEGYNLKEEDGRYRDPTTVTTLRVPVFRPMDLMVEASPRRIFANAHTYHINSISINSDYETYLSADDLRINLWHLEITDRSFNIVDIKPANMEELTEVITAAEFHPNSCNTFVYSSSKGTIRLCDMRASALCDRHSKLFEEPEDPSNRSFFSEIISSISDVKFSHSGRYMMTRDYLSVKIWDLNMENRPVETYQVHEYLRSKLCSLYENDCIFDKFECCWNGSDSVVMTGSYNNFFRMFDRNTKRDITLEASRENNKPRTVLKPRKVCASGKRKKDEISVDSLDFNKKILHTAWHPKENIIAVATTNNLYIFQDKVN
B3: Serine/threonine-protein phosphatase 2A 65 kDa regulatory subunit A beta isoform (Homo sapiens), P30154 (parent)
chain: B1 chain
B4: Ras-related protein Ral-A (Homo sapiens), P11233 (parent)
chain: B1 partner

Variants of: B1
Details: with rala_human RALA

Effect of a mutation on the interaction, decreasing interaction:
G8R
V448A
V545A

Variants of: B2
Details: with 2aba_human PPP2R2A

Effect of a mutation on the interaction, decreasing interaction:
L101P;V448A

Variants of: B3
Details: with pp2aa_human PPP2CA

Effect of a mutation on the interaction, decreasing interaction:
L101P;V448A
L101P
V448A

Variants of: B3
Details: with 2a5a_human PPP2R5A

Effect of a mutation on the interaction, decreasing interaction:
L101P;V448A
L101P
V448A

Variants of: B3
Details: with 2a5g_human PPP2R5C

Effect of a mutation on the interaction, decreasing interaction:
L101P;V448A
V545A
L101P
K343E
V448A
D504G

Variants of: B3
Details: with 2a5d_human PPP2R5D

Effect of a mutation on the interaction, decreasing interaction:
L101P;V448A
V545A
L101P
V448A

Variants of: B4
Details: with 2aab_human PPP2R1B

Effect of a mutation on the interaction, decreasing interaction:
MAANKPKGQNSLALHKVIMVGSGGVGKSALTLQFMYDEFVEDYEPTKADSYRKKVVLDGEEVQIDILDTAGQEDYAAIRDNYFRSGEGFLCVFSITEMESFAATADFREQILRVKEDENVPFLLVGNKSDLEDKRQVSVEEAKNRAEQWNVNYVETSAKTRANVDKVFFDLMREIRARKMEDSKEKNGKKKRKALAKRIRERCCIL [S194A]
MAANKPKGQNSLALHKVIMVGSGGVGKSALTLQFMYDEFVEDYEPTKADSYRKKVVLDGEEVQIDILDTAGQEDYAAIRDNYFRSGEGFLCVFSITEMESFAATADFREQILRVKEDENVPFLLVGNKSDLEDKRQVSVEEAKNRAEQWNVNYVETSAKTRANVDKVFFDLMREIRARKMEDAKEKNGKKKRKSLAKRIRERCCIL [S183A]

— IntAct's records for PubMed 17540176
